Experimental data reported in patent CN105330739A.

What was measured:
[1] = molecular target: huVEGF 165 (human); assay: indirect ELISA on coated huVEGF, antibody at 3.2 ng/ml
[2] = molecular target: huVEGF 165 (human); assay: indirect ELISA on coated huVEGF, antibody at 0.64 ng/ml
[3] = molecular target: huVEGF 165 (human); assay: indirect ELISA, huVEGF coated at 0.5 ug/ml, four-parameter fit
[4] = molecular target: huVEGF 165 (human); assay: indirect ELISA on coated huVEGF, antibody at 80 ng/ml
[5] = molecular target: huVEGF 165 (human); assay: indirect ELISA on coated huVEGF, antibody at 0.0256 ng/ml
[6] = molecular target: huVEGF 165 (human); assay: indirect ELISA on coated huVEGF, antibody at 0.128 ng/ml
[7] = molecular target: huVEGF 165 (human); assay: indirect ELISA on coated huVEGF, antibody at 400 ng/ml
[8] = molecular target: huVEGF 165 (human); assay: indirect ELISA on coated huVEGF, antibody at 16 ng/ml
[9] = molecular target: huVEGF 165 (human); assay: indirect ELISA on coated huVEGF, antibody at 0.00512 ng/ml

Chain of huVEGF 165 (human) (chain, as listed by the source, form in doubt): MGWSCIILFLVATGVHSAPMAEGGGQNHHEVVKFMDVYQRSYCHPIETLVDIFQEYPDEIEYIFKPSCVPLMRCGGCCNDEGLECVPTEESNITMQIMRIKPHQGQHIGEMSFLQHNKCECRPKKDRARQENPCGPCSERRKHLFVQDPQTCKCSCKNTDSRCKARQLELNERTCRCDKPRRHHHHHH

OD450 复孔1 [1]: 1.83 OD450 | OD450 复孔2 [1]: 1.92 OD450 | OD平均 [1]: 1.87 OD450 | OD450 复孔1 [2]: 0.572 OD450 | OD450 复孔2 [2]: 0.614 OD450 | OD平均 [2]: 0.59 OD450 | EC50 [3]: 0.02 nM | OD450 复孔1 [4]: 3.33 OD450 | OD450 复孔2 [4]: 3.31 OD450 | OD平均 [4]: 3.32 OD450 | OD450 复孔1 [5]: 0.132 OD450 | OD450 复孔2 [5]: 0.135 OD450 | OD平均 [5]: 0.13 OD450 | OD450 复孔1 [6]: 0.208 OD450 | OD450 复孔2 [6]: 0.214 OD450 | OD平均 [6]: 0.21 OD450 | OD450 复孔1 [7]: 3.53 OD450 | OD450 复孔2 [7]: 3.44 OD450 | OD平均 [7]: 3.49 OD450 | OD450 复孔1 [8]: 3 OD450 | OD450 复孔2 [8]: 2.9 OD450 | OD平均 [8]: 2.95 OD450 | OD450 复孔1 [9]: 0.115 OD450 | OD450 复孔2 [9]: 0.118 OD450 | OD平均 [9]: 0.12 OD450
B1: NevegiMab抗体 (antibody, V domains shown)
VH: EVKLQESGPELKKPGETVKISCKASGYTFTNYGLNWVKQAPGKGLKWMGWINTYTGEPTYADDFKGRFAFSLETSASTAYLQINNLKNEDMATYFCAKYGITYEWYFDVWGAGTTVTVSS
VL: DIVLTQSTSSLSASLGDRVTISCRASQDISNSLNWYQQKPNGTVILLIYYTSRLHSGVPSRFSGSGSGAVYSLTISDLEQEDIATYFCQQGNTFPWTFGGGTKLEIKR
